Source: patent US20040253685A1
Each block holds one substance with its values, some of them ahead of it.

Experiments:
[1] = molecular target: T1, wild type bovine endothelial nitric oxide synthase (eNOS) (bovine) (UniProt P29473); experiment: cell-based or functional assay
T1 sequence (looked up): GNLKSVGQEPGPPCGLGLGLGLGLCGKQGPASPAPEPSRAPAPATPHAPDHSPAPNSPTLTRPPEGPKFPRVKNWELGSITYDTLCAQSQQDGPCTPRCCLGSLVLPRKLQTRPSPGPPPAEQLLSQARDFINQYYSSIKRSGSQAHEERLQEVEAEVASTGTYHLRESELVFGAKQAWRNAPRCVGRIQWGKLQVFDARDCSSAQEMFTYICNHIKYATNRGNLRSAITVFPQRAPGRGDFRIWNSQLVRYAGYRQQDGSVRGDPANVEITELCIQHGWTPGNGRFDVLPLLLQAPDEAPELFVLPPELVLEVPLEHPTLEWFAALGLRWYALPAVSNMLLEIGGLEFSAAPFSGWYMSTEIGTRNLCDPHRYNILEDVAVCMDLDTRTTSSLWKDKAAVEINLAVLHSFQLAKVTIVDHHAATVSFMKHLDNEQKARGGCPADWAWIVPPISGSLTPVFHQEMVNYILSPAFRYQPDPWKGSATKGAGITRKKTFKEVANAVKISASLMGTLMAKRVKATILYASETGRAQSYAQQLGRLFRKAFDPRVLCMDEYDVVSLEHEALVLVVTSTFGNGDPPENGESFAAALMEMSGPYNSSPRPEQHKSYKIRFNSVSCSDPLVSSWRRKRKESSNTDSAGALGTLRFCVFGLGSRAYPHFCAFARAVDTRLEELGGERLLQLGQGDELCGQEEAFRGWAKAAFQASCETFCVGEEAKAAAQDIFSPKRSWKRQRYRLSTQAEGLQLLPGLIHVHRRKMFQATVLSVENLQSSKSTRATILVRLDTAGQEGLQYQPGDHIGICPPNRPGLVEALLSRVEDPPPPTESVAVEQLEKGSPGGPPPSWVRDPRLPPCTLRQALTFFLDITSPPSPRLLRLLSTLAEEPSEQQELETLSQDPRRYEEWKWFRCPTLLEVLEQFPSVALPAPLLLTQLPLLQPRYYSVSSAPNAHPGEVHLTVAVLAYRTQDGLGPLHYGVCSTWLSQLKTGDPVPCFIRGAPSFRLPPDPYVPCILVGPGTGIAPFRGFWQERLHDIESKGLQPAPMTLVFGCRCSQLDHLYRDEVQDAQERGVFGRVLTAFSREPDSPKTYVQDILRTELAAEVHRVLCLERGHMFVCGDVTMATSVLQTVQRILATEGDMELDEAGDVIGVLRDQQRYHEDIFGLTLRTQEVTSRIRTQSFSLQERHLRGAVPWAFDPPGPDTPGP

[2] = molecular target: S1179D eNOS (bovine) (bovine) (UniProt P29473); experiment: cell-based or functional assay

cGMP accumulation (assayed in COS cells) [1]: 5.8 pmol cGMP
Substance: HA-tagged kinase inactive Akt (K179M) (enzyme)

phosphorylation of eNOS in 32P-orthophosphate labeled COS cells [1]: 2 fold
Substance: HA-tagged wild-type Akt (protein kinase B) (enzyme)

EC50 for CaM, NADPH-mediated cytochrome c reduction as a function of CaM concentration [1]: 0.013 µM
EC50 for CaM, NOS activity (L-Citrulline) as a function of CaM concentration [1]: 0.008 µM
EC50 for CaM, NADPH-mediated cytochrome c reduction as a function of CaM concentration [2]: 0.021 µM
EC50 for CaM, NOS activity (L-Citrulline) as a function of CaM concentration [2]: 0.007 µM
Substance: calmodulin

cGMP accumulation (assayed in COS cells) (pmol cGMP/mg protein) [1]: 11.6
Substance: constitutively active form of Akt (myr-Akt) (enzyme)
